{"source": "paper PMC10787763", "about": "“Two-substrate enzyme engineering using small libraries that combine the substrate preferences from two different variant lineages” (Scientific Reports, 2024)", "substrate": "O=Cc1cccc(C(=O)O)c1", "experiment": "initial-rate kinetics by RP-HPLC, Michaelis-Menten fit", "type": "biochemical, Escherichia coli", "conditions": "TK-3, acceptor substrate varied, 50 mM pyruvate as donor, 2.4 mM ThDP, 9 mM MgCl2, 50 mM Tris-HCl pH 7.0, 21 °C, error is SEM", "source_text": "initial-rate kinetics by RP-HPLC, Michaelis-Menten fit on E. coli transketolase (TK), 6M variant scaffold"}
{"protein": "E. coli transketolase (TK), 6M variant scaffold (Escherichia coli K-12; A282P/D469T/G506A/H100L/H192P/I365L/S385F) (protein, full-length, C-terminal His6 tag, expressed in E. coli from lab plasmid (pQR791 / pQR729), Ni-NTA purified; holo-TK with ThDP and Mg2+; non-natural residue by amber suppression in TK-5C) MSSRKELANAIRALSMDAVQKAKSGHPGAPMGMADIAEVLWRDFLKHNPQNPSWADRDRFVLSNGHGSMLIYSLLHLTGYDLPMEELKNFRQLHSKTPGLPEVGYTAGVETTTGPLGQGIANAVGMAIAEKTLAAQFNRPGHDIVDHYTYAFMGDGCMMEGISHEVCSLAGTLKLGKLIAFYDDNGISIDGPVEGWFTDDTAMRFEAYGWHVIRDIDGHDAASIKRAVEEARAVTDKPSLLMCKTIIGFGSPNKAGTHDSHGAPLGDAEIALTREQLGWKYPPFEIPSEIYAQWDAKEAGQAKESAWNEKFAAYAKAYPQEAAEFTRRMKGEMPSDFDAKAKEFIAKLQANPAKIASRKASQNALEAFGPLLPEFLGGSADLAPFNLTLWSGSKAINEDAAGNYIHYGVREFGMTAIANGISLHGGFLPYTSTFLMFVEYARNAVRMAALMKQRQVMVYTHDSIGLGETGPTHQPVEQVASLRVTPNMSTWRPCDQVESAVAWKYAVERQDGPTALILSRQNLAQQERTEEQLANIARGGYVLKDCAGQPELIFIATGSEVELAVAAYEKLTAEGVKARVVSMPSTDAFDKQDAAYRESVLPKAVTARVAVEAGIADYWYKYVGLNGAIVGMTTFGESAPAELLFEEFGFTVDNVVAKAKELL", "values": [{"measurement": "Km", "result": "82 (11) mM"}, {"measurement": "Vmax", "result": 3500, "unit": "µM/min"}, {"measurement": "kcat", "result": 43, "unit": "s⁻¹"}]}
